{
  "source": "patent US20120316071A1",
  "about": "(published 2012)",
  "binders": {"B1": {"name": "Fab VH1-46_IGHD6-6*01_IGHJ1*01 S102A/S103P/S104F (APF) & L6_IGKJ1*01 (Fab, V domains shown)", "VH": "QVQLVQSGAEVKKPGASVKVSCKASGYTFTSYYMHWVRQAPGQGLEWMGIINPSGGSTSYAQKFQGRVTMTRDTSTSTVYMELSSLRSEDTAVYYCAREEYAPFSAEYFQHWGQGTLVTVSS", "VL": "not shown", "notes": "Tested as a Fab made in E. coli; also called H:APF & L:wt; APF triple mutant"}, "B2": {"name": "Fab VH1-46_IGHD6-6*01_IGHJ1*01 & L6_IGKJ1*01 (Fab, V domains shown)", "VH": "B1 VH with A102S, P103S, F104S", "VL": "not shown", "notes": "Only variable domains are tied to the molecule; Tested as a Fab made in E. coli: heavy chain from Plasmid A (CH1 constant region, His6 and Flag tags), kappa light chain from Plasmid C (kappa CL); also called parent Hit Fab against DLL4; VH1-46_IGHD6-6*01_IGHJ1*01 & L6_IGKJ1*01 (parental)"}, "B3": {"name": "Fab VH1-46_IGHD7-27*01_IGHJ2*01 & L6_IGKJ1*01 (Fab, V domains shown)", "VH": "QVQLVQSGAEVKKPGASVKVSCKASGYTFTSYYMHWVRQAPGQGLEWMGIINPSGGSTSYAQKFQGRVTMTRDTSTSTVYMELSSLRSEDTAVYYCARANWGYWYFDLWGRGTLVTVSS", "VL": "not shown", "notes": "Germline Fab made in E. coli; VH was cloned in Plasmid A (CH1 constant region, His6 and Flag tags) and the kappa VL in Plasmid C (kappa CL); Only the variable domains are tied to this Fab by name"}},
  "key": {"[1]": {"molecular_target": "T1, rHuman CD44/Fc Chimera, CF (R&D Systems Cat#3660-CD) (human, UniProt P16070 21-220)", "T1 construct": "Bought reagent; Fc part of the bought chimera not given", "assay": "ECL Multispot (MSD) assay, antigen spotted on plate, 10 nM Fab; blank spot of this row 344"}, "[2]": {"molecular_target": "T2, Recombinant Human DLL4 (R&D Systems Cat#1506-D4/CF) (human, UniProt Q9NR61 27-524)", "T2 construct": "Bought recombinant protein; also called rHuman DLL4; delta-like protein 4", "assay": "MSD multispot ECL, antigen spotted, Fab 37.2 nM; blank spot 199"}, "[3]": {"molecular_target": "T3, rHuman ErbB2/Fc Chimera, CF (R&D Systems Cat#1129-ER) (human, UniProt P04626 23-652)", "T3 construct": "Bought reagent; also called human epidermal growth factor 2 receptor", "assay": "MSD multispot ECL, antigen spotted, Fab 37.2 nM; blank spot 199"}, "[4]": {"molecular_target": "T4, rHuman EGF R/Fc Chimera, CF (R&D Systems Cat#344-ER) (human, UniProt P00533 25-645)", "T4 construct": "Bought reagent; also called epidermal growth factor receptor", "assay": "MSD multispot ECL, antigen spotted, Fab 37.2 nM; blank spot 199"}, "[5]": {"molecular_target": "T5, rHuman HGF R/c-MET/Fc Chimera, CF (R&D Systems Cat#358-MT/CF) (human, UniProt P08581 25-932)", "T5 construct": "Bought reagent; also called HGF R/Fc; hepatocyte growth factor receptor", "assay": "MSD multispot ECL, antigen spotted, Fab 37.2 nM; blank spot 199"}, "[6]": {"molecular_target": "T6, rHuman Notch-1/Fc Chimera, CF (R&D Systems Cat#3647-TK) (human, UniProt P46531 19-526)", "T6 construct": "Bought reagent", "assay": "MSD multispot ECL, antigen spotted, Fab 37.2 nM; blank spot 199"}, "[7]": {"molecular_target": "T7, rHuman CD44/Fc Chimera, CF (R&D Systems Cat#3660-CD) (human, UniProt P16070 21-220)", "T7 construct": "Bought reagent", "assay": "MSD multispot ECL, antigen spotted, Fab 37.2 nM; blank spot 199"}, "[8]": {"molecular_target": "T8, rHuman IGF-1 sR, (IGF-1 sR), CF (R&D Systems Cat#391-GR) (human, UniProt P08069 31-932)", "T8 construct": "Bought soluble receptor; also called insulin-like growth factor-1 soluble receptor", "assay": "MSD multispot ECL, antigen spotted, Fab 37.2 nM; blank spot 199"}, "[9]": {"molecular_target": "T9, rHuman Erythropoietin R/Fc Chimera, CF (R&D Systems Cat#963-ER) (human, UniProt P19235 25-250)", "T9 construct": "Bought reagent; also called EPO R/Fc; Epo R", "T9 sequence (looked up)": "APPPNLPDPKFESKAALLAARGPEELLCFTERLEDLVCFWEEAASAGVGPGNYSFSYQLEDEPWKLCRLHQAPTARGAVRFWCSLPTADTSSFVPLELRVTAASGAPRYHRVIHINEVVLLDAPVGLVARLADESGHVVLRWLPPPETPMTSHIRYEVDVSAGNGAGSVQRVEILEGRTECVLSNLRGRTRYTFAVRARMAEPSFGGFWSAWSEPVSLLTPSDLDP", "assay": "MSD multispot ECL, antigen spotted, Fab 37.2 nM; blank spot 199"}, "[10]": {"molecular_target": "T10, rHuman Erythropoietin R/Fc Chimera, CF (R&D Systems Cat#963-ER) (human, UniProt P19235 25-250)", "T10 construct": "Bought recombinant protein; also called EPO R/Fc; Epo R; Fc part of the bought chimera not given", "T10 sequence (looked up)": "T9 sequence (looked up)", "assay": "Multispot ECL (MSD) assay, antigen spotted on plate, Fab at 0.0624 µM; blank spot 960"}, "[11]": {"molecular_target": "T11, Recombinant Human DLL4 (R&D Systems Cat#1506-D4/CF) (human, UniProt Q9NR61 27-524)", "T11 construct": "Bought recombinant protein; also called delta-like protein 4; rHuman DLL4", "assay": "Multispot ECL (MSD) assay, antigen spotted on plate, Fab at 0.0624 µM; blank spot 960"}, "[12]": {"molecular_target": "T12, rHuman ErbB2/Fc Chimera, CF (R&D Systems Cat#1129-ER) (human, UniProt P04626 23-652)", "T12 construct": "Bought recombinant protein; also called human epidermal growth factor 2 receptor (ErbB2); Fc part of the bought chimera not given", "assay": "Multispot ECL (MSD) assay, antigen spotted on plate, Fab at 0.0624 µM; blank spot 960"}, "[13]": {"molecular_target": "T13, rHuman EGF R/Fc Chimera, CF (R&D Systems Cat#344-ER) (human, UniProt P00533 25-645)", "T13 construct": "Bought recombinant protein; also called epidermal growth factor receptor (EGF R); Fc part of the bought chimera not given", "assay": "Multispot ECL (MSD) assay, antigen spotted on plate, Fab at 0.0624 µM; blank spot 960"}, "[14]": {"molecular_target": "T14, rHuman HGF R/c-MET/Fc Chimera, CF (R&D Systems Cat#358-MT/CF) (human, UniProt P08581 25-932)", "T14 construct": "Bought recombinant protein; also called HGF R/Fc; hepatocyte growth factor receptor (HGF R/c-Met); Fc part of the bought chimera not given", "assay": "Multispot ECL (MSD) assay, antigen spotted on plate, Fab at 0.0624 µM; blank spot 960"}, "[15]": {"molecular_target": "T15, rHuman Notch-1/Fc Chimera, CF (R&D Systems Cat#3647-TK) (human, UniProt P46531 19-526)", "T15 construct": "Bought recombinant protein; Fc part of the bought chimera not given", "assay": "Multispot ECL (MSD) assay, antigen spotted on plate, Fab at 0.0624 µM; blank spot 960"}, "[16]": {"molecular_target": "T16, rHuman CD44/Fc Chimera, CF (R&D Systems Cat#3660-CD) (human, UniProt P16070 21-220)", "T16 construct": "Bought recombinant protein; Fc part of the bought chimera not given", "assay": "Multispot ECL (MSD) assay, antigen spotted on plate, Fab at 0.0624 µM; blank spot 960"}, "[17]": {"molecular_target": "T17, rHuman IGF-1 sR, (IGF-1 sR), CF (R&D Systems Cat#391-GR) (human, UniProt P08069 31-932)", "T17 construct": "Bought recombinant soluble receptor; also called insulin-like growth factor-1 soluble receptor", "assay": "Multispot ECL (MSD) assay, antigen spotted on plate, Fab at 0.0624 µM; blank spot 960"}, "[18]": {"molecular_target": "T18, rHuman P-Cadherin/Fc Chimera, CF (R&D Systems Cat#861-PC) (human, UniProt P22223 108-654)", "T18 construct": "Bought recombinant protein; Fc part of the bought chimera not given", "assay": "Multispot ECL (MSD) assay, antigen spotted on plate, Fab at 0.0624 µM; blank spot 960"}},
  "note": "Positions count from the first letter of the chain named. Numbers in names are those of the source.",
  "data": [
    {"binder": "B1", "values": [
      {"measurement": "ECL signal", "setting": "[1]", "result": 417}
    ]},
    {"binder": "B2", "values": [
      {"measurement": "ECL signal", "setting": "[2]", "result": 16700, "unit": "ECL signal"},
      {"measurement": "ECL signal", "setting": "[3]", "result": 384, "unit": "ECL signal"},
      {"measurement": "ECL signal", "setting": "[4]", "result": 228, "unit": "ECL signal"},
      {"measurement": "ECL signal", "setting": "[5]", "result": 207, "unit": "ECL signal"},
      {"measurement": "ECL signal", "setting": "[6]", "result": 402, "unit": "ECL signal"},
      {"measurement": "ECL signal", "setting": "[7]", "result": 356, "unit": "ECL signal"},
      {"measurement": "ECL signal", "setting": "[8]", "result": 295, "unit": "ECL signal"},
      {"measurement": "ECL signal", "setting": "[9]", "result": 315, "unit": "ECL signal"}
    ]},
    {"binder": "B3", "values": [
      {"measurement": "ECL signal", "setting": "[10]", "result": 2680},
      {"measurement": "ECL signal", "setting": "[11]", "result": 2580},
      {"measurement": "ECL signal", "setting": "[12]", "result": 2150},
      {"measurement": "ECL signal", "setting": "[13]", "result": 2420},
      {"measurement": "ECL signal", "setting": "[14]", "result": 2450},
      {"measurement": "ECL signal", "setting": "[15]", "result": 2350},
      {"measurement": "ECL signal", "setting": "[16]", "result": 2110},
      {"measurement": "ECL signal", "setting": "[17]", "result": 2030},
      {"measurement": "ECL signal", "setting": "[18]", "result": 4230}
    ]}
  ]
}
